Test results reported in patent US20080214457A1 (METROHEALTH SYSTEM, published 2008).
Where no end group is shown, it is not given here.

Target: T1, H558-YFPf (human, UniProt Q14524 538-577)
T1 construct: Expressed in HEK293 cells; also called hNav1.5 protein fragment centered on H558 fused to YFP; not shown: enhanced yellow fluorescent protein from the pEYFP-N3 vector
Test: three-channel FRET normalized to CFP, fragments coexpressed in HEK293 cells
Text: Three-channel FRET ratios were normalized to CFP and reported as FRETc as previously described by Vanderklish and colleagues, Proc Natl Acad Sci USA. 2000; 97:2253-2258. […] In all experiments, FRET was absent from the cell membrane, which is consistent with the inability of these protein fragments to traffic to the membrane. […] More importantly, hNav1.5 interaction occurs preferentially when 1 protein expresses R558 and the other expresses H558.

B1: R558-CFPf (other, human, UniProt Q14524 538-577, looked up)
chain: GSEADFADDENSTAGESESHRTSLLVPWPLRRTSAQGQPS
modifications: also: fused to CFP, linker and end not given here
notes: Expressed in HEK293 cells; not shown: enhanced cyan fluorescent protein from the pECFP-N3 vector
fold increase in FRETc compared with the homotypic FRETc values: 3 fold
